This is an account of results in publication PMC12381156.

The target in this assay is G protein-coupled bile acid receptor 1 (GPBAR1), full-length human, with N-terminal FLAG and BRIL (human) (UniProt Q8TDU6). Description: mass photometry; samples in 20 mM HEPES, 150 mM NaCl, 0.02%/0.002% LMNG/CHS, drop-diluted in PBS to 10 nM (apo-GPBAR1) and 30 nM (GPBAR1/Gs complex with P395 and Nb35); room temperature (18 °C).
UniProt Q8TDU6, sequence (Q8TDU6 whole entry): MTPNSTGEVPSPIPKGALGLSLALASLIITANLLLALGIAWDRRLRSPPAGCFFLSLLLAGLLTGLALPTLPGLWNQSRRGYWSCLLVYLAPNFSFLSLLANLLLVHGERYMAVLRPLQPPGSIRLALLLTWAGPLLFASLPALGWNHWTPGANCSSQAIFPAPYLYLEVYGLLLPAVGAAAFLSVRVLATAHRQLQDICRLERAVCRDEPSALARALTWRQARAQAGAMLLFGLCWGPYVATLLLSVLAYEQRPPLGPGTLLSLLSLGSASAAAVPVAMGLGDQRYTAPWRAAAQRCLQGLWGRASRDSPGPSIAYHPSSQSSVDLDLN

“Gs heterotrimer (Gαs, Gβ1, Gγ2) (from UniProt P63096 1-18; P63092 16-394; P62873 2-340; P59768 1-71) (complex)” returned a stoichiometry N of 1.

For orientation: stoichiometry N means the number of molecules, sites or subunits per partner or assembly.
